The record followed here is IntAct's records for PubMed 17185412.

For one assay, the target named is syt1_mouse Syt1 (UniProt P46096).
The target of the next assay is syt2_mouse Syt2 (UniProt P46097).

Turning to “Botulinum neurotoxin type B (Clostridium botulinum) (from UniProt P10844) K1192E”, the “effect of a mutation on the interaction” value with syt1_mouse Syt1 is “decreasing interaction strength”.

Turning to “Botulinum neurotoxin type B (Clostridium botulinum) (from UniProt P10844) K1192M”, the “effect of a mutation on the interaction” value with syt1_mouse Syt1 is listed as “decreasing interaction strength”.

“Botulinum neurotoxin type B (Clostridium botulinum) (from UniProt P10844) V1118D”: the “effect of a mutation on the interaction” value with syt2_mouse Syt2 and with syt1_mouse Syt1 was “decreasing interaction strength” in each case.

Consider “Botulinum neurotoxin type B (Clostridium botulinum) (from UniProt P10844) W1262L”, for which, in the assay with syt1_mouse Syt1, the “effect of a mutation on the interaction” value is “decreasing interaction strength”.

For the substance “Botulinum neurotoxin type B (Clostridium botulinum) (from UniProt P10844) Y1183R”, the “effect of a mutation on the interaction” value with syt2_mouse Syt2 and with syt1_mouse Syt1 was “decreasing interaction strength” each time.
